Measurements taken from PMC6940986, “Structural Insights into the Intracellular Region of the Human Magnesium Transport Mediator CNNM4” (International Journal of Molecular Sciences, 2019).

B1: CNNM4_(cNMP) (human CNNM4 cyclic nucleotide monophosphate binding-like domain, residues 545-730) [modified: SeMet labeled in the crystals; SeMet labeled in the crystals] [human] / itself (parent)
chain: KISPQLLLAAHRFLATEVSQFSPSLISEKILLRLLKYPDVIQELKFDEHNKYYARHYLYTRNKPADYFILILQGKVEVEAGKENMKFETGAFSYYGTMALTSVPSDRSPAHPTPLSRSASLSYPDRTDVSTAATLAGSSNQFGSSVLGQYISDFSVRALVDLQYIKITRQQYQNGLLASRMENSPQ
B2: CNNM4_(BAT-cNMP-Ctail) (complete intracellular region of human CNNM4, residues 356-775) [human] / itself (parent)
chain: KEELNMIQGALELRTKTVEDIMTQLQDCFMIRSDAILDFNTMSEIMESGYTRIPVFEDEQSNIVDILYVKDLAFVDPDDCTPLKTITRFYNHPVHFVFHDTKLDAMLEEFKKGKSHLAIVQKVNNEGEGDPFYEVLGLVTLEDVIEEIIKSEILDESDMYTDNRSRKRVSEKNKRDFSAFKDADNELKVKISPQLLLAAHRFLATEVSQFSPSLISEKILLRLLKYPDVIQELKFDEHNKYYARHYLYTRNKPADYFILILQGKVEVEAGKENMKFETGAFSYYGTMALTSVPSDRSPAHPTPLSRSASLSYPDRTDVSTAATLAGSSNQFGSSVLGQYISDFSVRALVDLQYIKITRQQYQNGLLASRMENSPQFPIDGCTTHMENLAEKSELPVVDETTTLLNERNSLLHKASHENAI

Tests used:
itself [1] = variants of: B1; test: SEC-MALS; conditions: with itself, monomer Mw = 20936.78 Da
itself [2] = variants of: B2; test: SEC-MALS; conditions: with itself, monomer MW = 47,861.17 Da

screen value (itself [1]; 1 mg/mL (dotted lines)) [Da] | screen value (itself [1]; 10 mg/mL (solid lines)) [Da] | screen value (itself [2]; 1 mg/mL (dotted lines)) [Da] | screen value (itself [2]; 10 mg/mL (solid lines)) [Da] | Variant
21700 | 26400 |  |  | chain 1 F87A
 |  | 49200 | 60900 | chain 1 F276A
